In the supplement of paper PMC9112550, “Optimization of the antimicrobial peptide Bac7 by deep mutational scanning” (BMC Biology, 2022):

System: Escherichia coli TOP10
Assay: shrunken log2 fold change of peptide-encoding DNA abundance (4.5 h post-induction vs induction); higher = less antimicrobial activity (less host growth inhibition)
Conditions: time post-induction: 4.5 h; library: site-saturation at positions 5, 18, 19, 20
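Note: peptides expressed intracellularly from a pBAD plasmid library in pooled LB shake-flask culture, induced with 0.3% L-arabinose, DNA abundance read by NGS, three biological replicates, DESeq2 with apeglm shrinkage.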

RRIRPRPPRLPRPRPRPDLYPRP
shrunken log2 fold change: -0.153

RRIRPRPPRLPRPRPRPDMVPRP
shrunken log2 fold change: -0.177

RRIRPRPPRLPRPRPRPDQDPRP
shrunken log2 fold change: 0.0461

RRIRPRPPRLPRPRPRPDQVPRP
shrunken log2 fold change: 0.0258

RRIRPRPPRLPRPRPRPDRLPRP
shrunken log2 fold change: 0.48

RRIRPRPPRLPRPRPRPDSHPRP
shrunken log2 fold change: 0.101

RRIRPRPPRLPRPRPRPDSMPRP
shrunken log2 fold change: -0.326

RRIRPRPPRLPRPRPRPDSQPRP
shrunken log2 fold change: -0.127

RRIRPRPPRLPRPRPRPDSSPRP
shrunken log2 fold change: -0.000765

RRIRPRPPRLPRPRPRPDYWPRP
shrunken log2 fold change: 0.207

RRIRPRPPRLPRPRPRPEALPRP
shrunken log2 fold change: 0.439

RRIRPRPPRLPRPRPRPEDNPRP
shrunken log2 fold change: -0.0402

RRIRPRPPRLPRPRPRPEEWPRP
shrunken log2 fold change: -0.0099

RRIRPRPPRLPRPRPRPEHDPRP
shrunken log2 fold change: -0.00589

RRIRPRPPRLPRPRPRPEHSPRP
shrunken log2 fold change: -0.0353

RRIRPRPPRLPRPRPRPEIVPRP
shrunken log2 fold change: 0.0303

RRIRPRPPRLPRPRPRPEMKPRP
shrunken log2 fold change: -0.0423

RRIRPRPPRLPRPRPRPEMWPRP
shrunken log2 fold change: 0.579

RRIRPRPPRLPRPRPRPENFPRP
shrunken log2 fold change: 0.0102

RRIRPRPPRLPRPRPRPENWPRP
shrunken log2 fold change: 0.264

RRIRPRPPRLPRPRPRPEQHPRP
shrunken log2 fold change: 0.214

RRIRPRPPRLPRPRPRPERWPRP
shrunken log2 fold change: 0.56

RRIRPRPPRLPRPRPRPESQPRP
shrunken log2 fold change: -0.0975

RRIRPRPPRLPRPRPRPETHPRP
shrunken log2 fold change: 0.221

RRIRPRPPRLPRPRPRPEVSPRP
shrunken log2 fold change: 0.0949

RRIRPRPPRLPRPRPRPEWLPRP
shrunken log2 fold change: 0.404

RRIRPRPPRLPRPRPRPEYFPRP
shrunken log2 fold change: -0.185

RRIRPRPPRLPRPRPRPEYWPRP
shrunken log2 fold change: -0.035

RRIRPRPPRLPRPRPRPFCIPRP
shrunken log2 fold change: -0.463

RRIRPRPPRLPRPRPRPFELPRP
shrunken log2 fold change: -0.284

RRIRPRPPRLPRPRPRPFFLPRP
shrunken log2 fold change: -0.041

RRIRPRPPRLPRPRPRPFGEPRP
shrunken log2 fold change: 0.0159

RRIRPRPPRLPRPRPRPFGLPRP
shrunken log2 fold change: -0.209

RRIRPRPPRLPRPRPRPFGNPRP
shrunken log2 fold change: -0.146

RRIRPRPPRLPRPRPRPFGQPRP
shrunken log2 fold change: -0.34

RRIRPRPPRLPRPRPRPFKCPRP
shrunken log2 fold change: -0.214

RRIRPRPPRLPRPRPRPFKHPRP
shrunken log2 fold change: 0.0339

RRIRPRPPRLPRPRPRPFKKPRP
shrunken log2 fold change: -0.161

RRIRPRPPRLPRPRPRPFLLPRP
shrunken log2 fold change: -0.516

RRIRPRPPRLPRPRPRPFNLPRP
shrunken log2 fold change: -0.771

RRIRPRPPRLPRPRPRPFPGPRP
shrunken log2 fold change: -0.226

RRIRPRPPRLPRPRPRPFPIPRP
shrunken log2 fold change: -0.371

RRIRPRPPRLPRPRPRPFPPPRP
shrunken log2 fold change: -0.0227

RRIRPRPPRLPRPRPRPFQKPRP
shrunken log2 fold change: -0.163

RRIRPRPPRLPRPRPRPFSDPRP
shrunken log2 fold change: -0.0761

RRIRPRPPRLPRPRPRPFSNPRP
shrunken log2 fold change: -0.218

RRIRPRPPRLPRPRPRPFSWPRP
shrunken log2 fold change: -0.0698

RRIRPRPPRLPRPRPRPFWEPRP
shrunken log2 fold change: -0.0196

RRIRPRPPRLPRPRPRPFWHPRP
shrunken log2 fold change: -0.017

RRIRPRPPRLPRPRPRPFYRPRP
shrunken log2 fold change: 0.0278

RRIRPRPPRLPRPRPRPFYSPRP
shrunken log2 fold change: -0.161

RRIRPRPPRLPRPRPRPGAEPRP
shrunken log2 fold change: 0.798

RRIRPRPPRLPRPRPRPGAKPRP
shrunken log2 fold change: 0.265

RRIRPRPPRLPRPRPRPGANPRP
shrunken log2 fold change: 0.364

RRIRPRPPRLPRPRPRPGCSPRP
shrunken log2 fold change: 0.266

RRIRPRPPRLPRPRPRPGDFPRP
shrunken log2 fold change: -0.0208

RRIRPRPPRLPRPRPRPGDGPRP
shrunken log2 fold change: 0.979

RRIRPRPPRLPRPRPRPGELPRP
shrunken log2 fold change: 0.192

RRIRPRPPRLPRPRPRPGFVPRP
shrunken log2 fold change: 0.143

RRIRPRPPRLPRPRPRPGKMPRP
shrunken log2 fold change: 0.0379

RRIRPRPPRLPRPRPRPGLCPRP
shrunken log2 fold change: 0.399

RRIRPRPPRLPRPRPRPGLGPRP
shrunken log2 fold change: 0.389

RRIRPRPPRLPRPRPRPGLRPRP
shrunken log2 fold change: 3.24

RRIRPRPPRLPRPRPRPGMMPRP
shrunken log2 fold change: -0.111

RRIRPRPPRLPRPRPRPGMPPRP
shrunken log2 fold change: -0.074

RRIRPRPPRLPRPRPRPGMTPRP
shrunken log2 fold change: 0.0694

RRIRPRPPRLPRPRPRPGNQPRP
shrunken log2 fold change: -0.143

RRIRPRPPRLPRPRPRPGPSPRP
shrunken log2 fold change: 0.0312

RRIRPRPPRLPRPRPRPGQLPRP
shrunken log2 fold change: -0.0604

RRIRPRPPRLPRPRPRPGSAPRP
shrunken log2 fold change: 0.18

RRIRPRPPRLPRPRPRPGSHPRP
shrunken log2 fold change: 0.142

RRIRPRPPRLPRPRPRPGVSPRP
shrunken log2 fold change: -0.0412

RRIRPRPPRLPRPRPRPGVVPRP
shrunken log2 fold change: 0.215

RRIRPRPPRLPRPRPRPGWDPRP
shrunken log2 fold change: 0.011

RRIRPRPPRLPRPRPRPGYLPRP
shrunken log2 fold change: -0.129

RRIRPRPPRLPRPRPRPGYMPRP
shrunken log2 fold change: -0.126

RRIRPRPPRLPRPRPRPHAPPRP
shrunken log2 fold change: 0.082

RRIRPRPPRLPRPRPRPHCVPRP
shrunken log2 fold change: -0.0495

RRIRPRPPRLPRPRPRPHDFPRP
shrunken log2 fold change: -0.145

RRIRPRPPRLPRPRPRPHEDPRP
shrunken log2 fold change: -0.0757

RRIRPRPPRLPRPRPRPHEKPRP
shrunken log2 fold change: -0.0384

RRIRPRPPRLPRPRPRPHFCPRP
shrunken log2 fold change: -0.353

RRIRPRPPRLPRPRPRPHFGPRP
shrunken log2 fold change: 0.0675

RRIRPRPPRLPRPRPRPHFQPRP
shrunken log2 fold change: 0.0551

RRIRPRPPRLPRPRPRPHGPPRP
shrunken log2 fold change: 0.0292

RRIRPRPPRLPRPRPRPHHMPRP
shrunken log2 fold change: -0.778

RRIRPRPPRLPRPRPRPHIHPRP
shrunken log2 fold change: -0.82

RRIRPRPPRLPRPRPRPHISPRP
shrunken log2 fold change: -0.422

RRIRPRPPRLPRPRPRPHLKPRP
shrunken log2 fold change: -0.000265

RRIRPRPPRLPRPRPRPHLSPRP
shrunken log2 fold change: -0.142

RRIRPRPPRLPRPRPRPHMAPRP
shrunken log2 fold change: -0.276

RRIRPRPPRLPRPRPRPHPGPRP
shrunken log2 fold change: 2.42

RRIRPRPPRLPRPRPRPHQHPRP
shrunken log2 fold change: 2.05

RRIRPRPPRLPRPRPRPHQIPRP
shrunken log2 fold change: 1.04

RRIRPRPPRLPRPRPRPHRTPRP
shrunken log2 fold change: -0.0599

RRIRPRPPRLPRPRPRPHSHPRP
shrunken log2 fold change: 0.00335

RRIRPRPPRLPRPRPRPHSSPRP
shrunken log2 fold change: -0.171

RRIRPRPPRLPRPRPRPHTKPRP
shrunken log2 fold change: 0.00533

RRIRPRPPRLPRPRPRPHTQPRP
shrunken log2 fold change: 0.0349

RRIRPRPPRLPRPRPRPHVWPRP
shrunken log2 fold change: 0.51

RRIRPRPPRLPRPRPRPHWVPRP
shrunken log2 fold change: -0.137

RRIRPRPPRLPRPRPRPICQPRP
shrunken log2 fold change: -0.0543

RRIRPRPPRLPRPRPRPIDIPRP
shrunken log2 fold change: -0.252

RRIRPRPPRLPRPRPRPIFDPRP
shrunken log2 fold change: -0.137

RRIRPRPPRLPRPRPRPIFGPRP
shrunken log2 fold change: 0.0562

RRIRPRPPRLPRPRPRPIFIPRP
shrunken log2 fold change: -0.389

RRIRPRPPRLPRPRPRPIFMPRP
shrunken log2 fold change: -0.0036

RRIRPRPPRLPRPRPRPIFVPRP
shrunken log2 fold change: -0.197

RRIRPRPPRLPRPRPRPIGCPRP
shrunken log2 fold change: -0.0888
